Read-outs that look alike come from different tables or passages of the source.
How the values were obtained:
[1] = target: human ubiquitin with noncleavable N-terminal (His)6 tag (human) (UniProt P0CG48); assay: ITC
[2] = target: human ubiquitin with noncleavable N-terminal (His)6 tag (human) (UniProt P0CG48); assay: ITC; remark: listed apart in the source

Substance | Kd [1] [µM] | Kd [2] [µM] | dH (kcal · mol^−1) [1] | stoichiometry N [1]
human Polι UBM2 P692A (residues 674–715) (domain or fragment) | 172 |  |  | 
human Polι UBM2 (residues 679–707) (domain or fragment) | 23.8 | 23.6 | 4.5 | 1.01
human Polι UBM2 (residues 674–715) (domain or fragment) |  | 23 |  | 
